8 molecules from patent US20210269521A1 (L AND L BIOPHARMA, published 2021) can be followed below.

Assay [1] deals with T1, human TIM-3 extracellular domain-his tag protein (human, UniProt Q8TDQ0 22-199).
T1 construct: Made in house or bought (ACROBiosystems TM3-H5229); also called TIM-3-his; Human Tim3-his; not shown: his tag
Nature of the assay: SPR Biacore, antibody captured on Protein A, antigen in flow. The protocol:
(§1) First, Protein A (Thermo Pierce, Cat #21181) was conjugated to the biosensing chip CMS (Cat. #BR-1005-30, GE), and the chip was activated with the newly prepared 50 mM NHS (N-hydroxysuccinimide) and 200 mM EDC [1-ethyl-3-(3-dimethylaminopropyl) carbodiimide hydrochloride], then 10 μg/ml Protein A prepared with 10 mM NaAC (pH 4.0) was injected. […] The flow rate was 30 μl/min, the binding time was 180 seconds and the dissociation time is 300 seconds. Subsequently, the chip was washed for 30s with 10 mM Glycine-HCl (pH 1.5) at 30 μl/min. The data were fitted with a 1:1 Langmuir model using the software of Biacore T200 evaluation version 3.0 (GE), and the affinity value KD was obtained.
For orientation: In SPR one partner is held on a chip, and binding of the other changes the refractive index at the surface.

The target of assay [2] is T2, Human PD-1-his (human, UniProt Q15116 25-170).
T2 construct: extracellular domain; not shown: his tag
Described as above. The protocol: as §1

Assay [3] concerns the target T3, human PD-1 extracellular domain protein expressed in Example 1 (tag not stated) (human, UniProt Q15116 25-170).
T3 construct: extracellular domain; also called PD-1 protein; not shown: human IgG1 Fc or his tag
Description: ELISA, PD-1 coated. The method, then: (§2) PD-1 expressed in Example 1 was diluted to a concentration of 1 μg/ml with PBS buffer, pH 7.4, and added to a 96-well microplate (Corning, CLS3590-100EA) at 50 μl per well, thereby incubating in an incubator at 37° C. for 2 hours. After discarding the liquid, a blocking solution of 5% skimmed milk (Shanghai Shenggong Biological Engineering Co., Ltd., A600669-0250) diluted with PBS was added at 200 μl per well, followed by incubating at 37° C. for 3 hours or 4° C. overnight (16-18 hours)) for blocking. Subsequently, the blocking solution was discarded, and the microplate was washed 5 times with PBST buffer (pH 7.4 PBS containing 0.05% tween-20). […] Subsequently, the microplate was washed 5 times with PBST, then 50 μl/well of 1:2500 diluted HRP-labeled secondary antibody (Jackson Immuno Research, 115-035-003) was added, thereby incubating at 37° C. for 1 hour. After washing the microplate 5 times with PBST, 50 μl/well TMB chromogenic substrate (KPL, 52-00-03) was added, then incubated at room temperature for 5-10 min. Finally, 50 μl/well of 1M H₂SO₄ was added to stop the reaction. […] Go microplate reader (ThermoFisher, 51119200) was used to read the absorption value at 450 nm and the EC50 based on the OD value was calculated.
On the technique in general: ELISA stands for enzyme-linked immunosorbent assay.

In assay [4] the target is T4, human TIM-3 extracellular domain-human IgG1 Fc fusion protein (human, UniProt Q8TDQ0 22-199).
T4 construct: Made in house or bought (ACROBiosystems TM3-H5258); also called TIM-3-hFc; not shown: human IgG1 Fc
Description: ELISA, EC50 of bispecific over EC50 of the monoclonal control.

The target in assay [5] is T3, human PD-1 extracellular domain protein …. The assay is described as above. The protocol: After washing the microplate 5 times with PBST, 50 μl/well TMB chromogenic substrate (KPL, 52-00-03) was added to the microplate, followed by incubating at room temperature for 10-15 min.
as §2

In assay [6] the target is T4, human TIM-3 extracellular domain-human …. Description: ELISA. The method, then:
Goat-anti-hFc (Jackson, 109-005-008) was diluted to a concentration of 1 μg/ml with PBS buffer (pH 7.4) and added to a 96-well microplate (Corning, CLS3590-100EA) at a volume of 50 μl/well, then incubated in an incubator at 37° C. for 2 hours (Or the antigen TIM-3 was directly used to coat the microplate with a concentration of 0.5 μg/ml, and then the antibody to be tested was directly added). After discarding the liquid, a blocking solution of 5% skimmed milk (skimmed milk powder purchased from Bright) diluted with PBS was added at 200 μl per well, and the microplate was incubated for 2.5 hours at 37° C. or overnight (16-18 hours) at 4° C. for blocking. The blocking solution was discarded, and the microplate was washed 5 times with PBST buffer (PBS with pH 7.4 containing 0.05% tween-20), then 50 μl/well of 0.5 μg/ml TIM-3-hFc (Example 1) was added and incubated for 2 hours in a 37° C. incubator. After incubation, the microplate was washed 6 times with PB ST. 50 μl/well of supernatant (containing testing antibody) or different concentrations of the antibody to be tested was added, and the microplate was incubated at 37° C. for 2 hours and washed 5 times with PBST. 50 μl/well of 1:2500 diluted HRP-labeled secondary antibody (Jackson Immuno Research, 115-035-003) was added to the microplate, incubating at 37° C. for 1 hour. After washing the microplate 5 times with PBST, 50 μl/well TMB chromogenic substrate (KPL, 52-00-03) was added to the microplate, followed by incubating at room temperature for 10-15 min.

The target in assay [7] is T3, human PD-1 extracellular domain protein …. Nature of the assay: ELISA, PD-1 coated. The method, then: as §2
The TIM-3 and PD-1 bispecific antibodies of the present invention were tested for their affinity for TIM-3 and PD-1 using the methods in Example 3 and Example 5, respectively.
This is another data set of the same source.

The target in assay [8] is T4, human TIM-3 extracellular domain-human …. Description: ELISA. The source holds these as a separate data set.

Positions count from the first letter of the chain named. Numbers in names are those of the source. Read-outs that look alike come from different tables or passages of the source.

B1: bispecific antibody LB247 (bispecific antibody, human IgG4 S228P, kappa)
light: EIVLTQSPATLSLSPGERATLSCRASKGVSTSGYSYLHWYQQKPGQAPRLLIYLASYLESGVPARFSGSGSGTDFTLTISSLEPEDFAVYYCQHSRDLPLTFGGGTKVEIKRTVAAPSVFIFPPSDEQLKSGTASVVCLLNNFYPREAKVQWKVDNALQSGNSQESVTEQDSKDSTYSLSSTLTLSKADYEKHKVYACEVTHQGLSSPVTKSFNRGEC
heavy: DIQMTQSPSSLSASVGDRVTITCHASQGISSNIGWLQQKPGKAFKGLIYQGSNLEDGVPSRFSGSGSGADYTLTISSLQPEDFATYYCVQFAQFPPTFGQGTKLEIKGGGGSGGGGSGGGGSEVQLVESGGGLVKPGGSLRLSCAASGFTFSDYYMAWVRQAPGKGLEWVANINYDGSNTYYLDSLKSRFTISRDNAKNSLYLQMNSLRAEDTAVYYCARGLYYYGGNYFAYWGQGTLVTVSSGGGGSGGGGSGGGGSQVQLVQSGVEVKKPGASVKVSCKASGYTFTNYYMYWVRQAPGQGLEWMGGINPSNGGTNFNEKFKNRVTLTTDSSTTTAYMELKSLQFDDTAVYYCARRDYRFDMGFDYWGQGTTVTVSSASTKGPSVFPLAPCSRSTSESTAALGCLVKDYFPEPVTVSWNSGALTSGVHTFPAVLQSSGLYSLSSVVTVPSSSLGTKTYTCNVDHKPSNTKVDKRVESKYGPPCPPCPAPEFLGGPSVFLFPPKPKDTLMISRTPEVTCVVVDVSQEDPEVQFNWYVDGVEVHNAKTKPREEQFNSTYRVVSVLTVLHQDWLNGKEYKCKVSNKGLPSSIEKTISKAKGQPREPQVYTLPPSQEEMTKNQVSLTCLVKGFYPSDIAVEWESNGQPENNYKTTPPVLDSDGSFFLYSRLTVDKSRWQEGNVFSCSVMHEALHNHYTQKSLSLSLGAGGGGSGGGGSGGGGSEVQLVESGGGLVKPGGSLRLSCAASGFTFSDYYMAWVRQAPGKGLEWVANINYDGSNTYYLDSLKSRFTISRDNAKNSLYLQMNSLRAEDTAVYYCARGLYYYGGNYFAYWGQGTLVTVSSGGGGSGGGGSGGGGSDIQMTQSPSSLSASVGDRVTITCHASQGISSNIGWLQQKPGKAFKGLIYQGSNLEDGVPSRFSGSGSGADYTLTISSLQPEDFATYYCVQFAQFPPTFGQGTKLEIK
Consider B1, for which the Kd (in general, a measure of binding affinity in units of concentration) in assay [1] is 8290 pM; in assay [2], 7340 pM. Further, the koff (usually the first-order rate constant of dissociation) was determined as 0.00332 s⁻¹ in assay [1] and 0.00259 s⁻¹ in assay [2]. Besides, the kon (usually the second-order rate constant of association) came out at 401000 M⁻¹ s⁻¹ in assay [1] and 353000 M⁻¹ s⁻¹ in assay [2]. Further, the EC50 (usually the concentration giving half of the maximal effect) in assay [3] was found to be 190 pM; in assay [6] it was 1860 pM. Further, the “Multiple of EC50 variation” value in assay [4] stood at 2.38 ratio; in assay [5], 1.98 ratio.

B2: bispecific antibody LB124 (bispecific antibody, human IgG4 S228P, kappa)
light: B1 light with L21I, V89T, D97E, G104T
heavy: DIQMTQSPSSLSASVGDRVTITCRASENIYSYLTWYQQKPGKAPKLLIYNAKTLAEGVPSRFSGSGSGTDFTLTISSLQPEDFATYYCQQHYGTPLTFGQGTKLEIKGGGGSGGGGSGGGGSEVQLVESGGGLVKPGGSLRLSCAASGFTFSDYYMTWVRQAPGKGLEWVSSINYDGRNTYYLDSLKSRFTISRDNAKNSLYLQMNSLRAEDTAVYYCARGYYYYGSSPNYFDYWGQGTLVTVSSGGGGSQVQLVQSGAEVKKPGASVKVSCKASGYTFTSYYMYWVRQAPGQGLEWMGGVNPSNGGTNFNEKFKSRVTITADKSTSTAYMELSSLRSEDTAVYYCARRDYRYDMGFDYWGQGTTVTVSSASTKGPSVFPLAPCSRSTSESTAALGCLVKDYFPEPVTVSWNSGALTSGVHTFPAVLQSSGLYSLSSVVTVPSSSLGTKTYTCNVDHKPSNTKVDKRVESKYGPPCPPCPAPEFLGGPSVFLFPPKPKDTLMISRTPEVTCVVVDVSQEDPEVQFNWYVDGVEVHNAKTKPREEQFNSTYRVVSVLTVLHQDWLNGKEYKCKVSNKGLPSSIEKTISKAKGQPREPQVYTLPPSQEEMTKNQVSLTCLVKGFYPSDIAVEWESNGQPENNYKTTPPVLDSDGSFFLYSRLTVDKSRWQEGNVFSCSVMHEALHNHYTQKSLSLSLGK
B2: the EC50 in assay [7] was 383 pM; in assay [8], 438 pM.

B3: bispecific antibody LB123 (bispecific antibody, human IgG4 S228P, kappa)
light: B1 light with L21I, V89T, D97E, G104T
heavy: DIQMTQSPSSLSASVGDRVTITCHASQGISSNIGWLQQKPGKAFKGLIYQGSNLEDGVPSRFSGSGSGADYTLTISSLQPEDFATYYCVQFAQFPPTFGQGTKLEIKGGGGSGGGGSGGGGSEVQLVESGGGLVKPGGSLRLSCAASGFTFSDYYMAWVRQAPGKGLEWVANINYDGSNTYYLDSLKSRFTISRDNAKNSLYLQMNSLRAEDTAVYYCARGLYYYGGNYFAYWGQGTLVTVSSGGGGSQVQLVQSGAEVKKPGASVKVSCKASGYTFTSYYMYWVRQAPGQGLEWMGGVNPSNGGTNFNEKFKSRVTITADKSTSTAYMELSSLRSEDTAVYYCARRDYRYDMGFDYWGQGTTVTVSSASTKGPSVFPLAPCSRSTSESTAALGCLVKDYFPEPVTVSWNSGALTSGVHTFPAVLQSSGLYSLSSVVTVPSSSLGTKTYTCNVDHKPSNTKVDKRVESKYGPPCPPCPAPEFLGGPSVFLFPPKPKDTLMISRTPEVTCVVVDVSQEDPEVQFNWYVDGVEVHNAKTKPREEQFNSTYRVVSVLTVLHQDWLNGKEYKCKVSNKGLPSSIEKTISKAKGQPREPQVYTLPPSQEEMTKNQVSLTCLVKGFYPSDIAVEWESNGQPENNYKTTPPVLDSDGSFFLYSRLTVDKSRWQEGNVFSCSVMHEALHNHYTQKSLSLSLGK
Take B3: the EC50 in assay [7] was determined as 216 pM; in assay [8], 181 pM.

B4: bispecific antibody LB127 (bispecific antibody, human IgG4 S228P, kappa)
light: DIQMTQSPSSLSASVGDRVTITCHASQGISSNIGWLQQKPGKAFKGLIYQGSNLEDGVPSRFSGSGSGADYTLTISSLQPEDFATYYCVQFAQFPPTFGQGTKLEIKRTVAAPSVFIFPPEIVLTQSPATLSLSPGERATISCRASKGVSTSGYSYLHWYQQKPGQAPRLLIYLASYLESGVPARFSGSGSGTDFTLTISSLEPEDFATYYCQHSRELPLTFGTGTKVEIKRTVAAPSVFIFPPSDEQLKSGTASVVCLLNNFYPREAKVQWKVDNALQSGNSQESVTEQDSKDSTYSLSSTLTLSKADYEKHKVYACEVTHQGLSSPVTKSFNRGEC
heavy: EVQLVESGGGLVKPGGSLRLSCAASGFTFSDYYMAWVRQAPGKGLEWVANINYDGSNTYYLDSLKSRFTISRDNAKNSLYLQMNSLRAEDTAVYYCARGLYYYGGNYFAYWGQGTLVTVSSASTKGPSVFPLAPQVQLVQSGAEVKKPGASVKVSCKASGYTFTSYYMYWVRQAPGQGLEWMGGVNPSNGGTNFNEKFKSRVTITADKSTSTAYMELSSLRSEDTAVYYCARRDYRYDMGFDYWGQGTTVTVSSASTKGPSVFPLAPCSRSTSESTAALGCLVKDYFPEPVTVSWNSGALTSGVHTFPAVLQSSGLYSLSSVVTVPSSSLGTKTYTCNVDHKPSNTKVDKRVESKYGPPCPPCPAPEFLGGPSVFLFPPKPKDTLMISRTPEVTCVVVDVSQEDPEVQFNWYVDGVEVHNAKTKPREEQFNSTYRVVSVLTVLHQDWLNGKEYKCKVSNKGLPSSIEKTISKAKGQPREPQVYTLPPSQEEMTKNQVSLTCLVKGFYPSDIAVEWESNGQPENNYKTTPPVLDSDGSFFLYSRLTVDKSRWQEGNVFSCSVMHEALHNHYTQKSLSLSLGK
Turning to B4, the figures for the EC50 in assay [7] and in assay [8] were 423 pM and 325 pM, respectively.

B5: bispecific antibody LB245 (bispecific antibody, human IgG4 S228P, kappa)
light: EIVLTQSPATLSLSPGERATLSCRASKGVSTSGYSYLHWYQQKPGQAPRLLIYLASYLESGVPARFSGSGSGTDFTLTISSLEPEDFAVYYCQHSRDLPLTFGGGTKVEIKRTVAAPSVFIFPPSDEQLKSGTASVVCLLNNFYPREAKVQWKVDNALQSGNSQESVTEQDSKDSTYSLSSTLTLSKADYEKHKVYACEVTHQGLSSPVTKSFNRGECGGGGSGGGGSGGGGSEVQLVESGGGLVKPGGSLRLSCAASGFTFSDYYMAWVRQAPGKGLEWVANINYDGSNTYYLDSLKSRFTISRDNAKNSLYLQMNSLRAEDTAVYYCARGLYYYGGNYFAYWGQGTLVTVSSGGGGSGGGGSGGGGSDIQMTQSPSSLSASVGDRVTITCHASQGISSNIGWLQQKPGKAFKGLIYQGSNLEDGVPSRFSGSGSGADYTLTISSLQPEDFATYYCVQFAQFPPTFGQGTKLEIK
heavy: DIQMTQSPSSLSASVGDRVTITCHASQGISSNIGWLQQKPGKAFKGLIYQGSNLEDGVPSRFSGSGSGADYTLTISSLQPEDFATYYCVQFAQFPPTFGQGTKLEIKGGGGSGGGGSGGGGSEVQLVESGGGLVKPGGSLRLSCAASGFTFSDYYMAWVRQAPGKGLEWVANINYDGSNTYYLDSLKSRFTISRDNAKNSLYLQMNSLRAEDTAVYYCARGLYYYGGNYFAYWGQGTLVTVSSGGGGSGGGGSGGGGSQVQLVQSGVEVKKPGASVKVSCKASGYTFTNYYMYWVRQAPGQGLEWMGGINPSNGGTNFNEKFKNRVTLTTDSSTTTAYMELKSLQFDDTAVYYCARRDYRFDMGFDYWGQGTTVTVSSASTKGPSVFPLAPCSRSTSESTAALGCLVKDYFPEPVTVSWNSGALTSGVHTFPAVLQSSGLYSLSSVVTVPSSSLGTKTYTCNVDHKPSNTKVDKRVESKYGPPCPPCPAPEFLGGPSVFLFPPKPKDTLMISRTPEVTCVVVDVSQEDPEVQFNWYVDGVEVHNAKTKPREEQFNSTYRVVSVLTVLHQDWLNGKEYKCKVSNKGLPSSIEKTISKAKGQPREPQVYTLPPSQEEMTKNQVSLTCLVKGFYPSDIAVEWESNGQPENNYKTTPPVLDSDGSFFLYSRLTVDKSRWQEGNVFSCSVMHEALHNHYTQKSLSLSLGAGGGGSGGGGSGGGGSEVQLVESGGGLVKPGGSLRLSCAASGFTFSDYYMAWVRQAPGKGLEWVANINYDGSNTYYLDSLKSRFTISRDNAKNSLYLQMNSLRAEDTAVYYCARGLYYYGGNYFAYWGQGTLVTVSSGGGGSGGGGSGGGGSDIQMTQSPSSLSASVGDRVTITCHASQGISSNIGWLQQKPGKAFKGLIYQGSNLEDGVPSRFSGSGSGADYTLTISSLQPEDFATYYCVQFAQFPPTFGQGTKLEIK
Turning to B5, the values for the EC50 in assay [3] and in assay [6] were 342 pM and 391 pM, respectively. For the same molecule, the “Multiple of EC50 variation” value in assay [4] turned out to be 2.46 ratio; in assay [5], 1.3 ratio.

B6: bispecific antibody LB129 (bispecific antibody, human IgG4 S228P, kappa)
light: DIQMTQSPSSLSASVGDRVTITCRASENIYSYLTWYQQKPGKAPKLLIYNAKTLAEGVPSRFSGSGSGTDFTLTISSLQPEDFATYYCQQHYGTPLTFGQGTKLEIKRTVAAPSVFIFPPEIVLTQSPATLSLSPGERATISCRASKGVSTSGYSYLHWYQQKPGQAPRLLIYLASYLESGVPARFSGSGSGTDFTLTISSLEPEDFATYYCQHSRELPLTFGTGTKVEIKRTVAAPSVFIFPPSDEQLKSGTASVVCLLNNFYPREAKVQWKVDNALQSGNSQESVTEQDSKDSTYSLSSTLTLSKADYEKHKVYACEVTHQGLSSPVTKSFNRGEC
heavy: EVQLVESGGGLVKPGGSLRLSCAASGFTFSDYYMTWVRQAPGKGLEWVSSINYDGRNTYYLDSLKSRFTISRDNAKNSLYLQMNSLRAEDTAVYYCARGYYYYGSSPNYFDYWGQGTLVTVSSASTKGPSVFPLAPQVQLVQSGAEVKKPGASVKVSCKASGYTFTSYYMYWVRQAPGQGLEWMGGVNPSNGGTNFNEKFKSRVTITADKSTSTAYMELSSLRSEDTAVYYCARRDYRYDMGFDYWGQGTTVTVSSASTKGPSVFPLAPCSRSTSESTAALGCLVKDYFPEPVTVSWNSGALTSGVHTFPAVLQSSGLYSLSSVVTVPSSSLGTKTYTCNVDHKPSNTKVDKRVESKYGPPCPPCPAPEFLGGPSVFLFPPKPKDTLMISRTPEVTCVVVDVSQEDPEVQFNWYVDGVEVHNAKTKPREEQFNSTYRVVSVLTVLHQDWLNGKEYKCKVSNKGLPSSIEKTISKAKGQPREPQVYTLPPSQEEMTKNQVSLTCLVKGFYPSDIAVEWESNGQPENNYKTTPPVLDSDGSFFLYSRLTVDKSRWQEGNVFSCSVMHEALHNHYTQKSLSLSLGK
In the case of B6, the EC50 came to 508 pM in assay [7] and 558 pM in assay [8].

B7: bispecific antibody LB147 (bispecific antibody, human IgG4 S228P, kappa)
light: DIQMTQSPSSLSASVGDRVTITCRASENIYSYLTWYQQKPGKAPKLLIYNAKTLAEGVPSRFSGSGSGTDFTLTISSLQPEDFATYYCQQHYGTPLTFGQGTKLEIKGGGGSGGGGSGGGGSEVQLVESGGGLVKPGGSLRLSCAASGFTFSDYYMTWVRQAPGKGLEWVSSINYDGRNTYYLDSLKSRFTISRDNAKNSLYLQMNSLRAEDTAVYYCARGYYYYGSSPNYFDYWGQGTLVTVSSGGGGSGGGGSGGGGSEIVLTQSPATLSLSPGERATLSCRASKGVSTSGYSYLHWYQQKPGQAPRLLIYLASYLESGVPARFSGSGSGTDFTLTISSLEPEDFAVYYCQHSRDLPLTFGGGTKVEIKRTVAAPSVFIFPPSDEQLKSGTASVVCLLNNFYPREAKVQWKVDNALQSGNSQESVTEQDSKDSTYSLSSTLTLSKADYEKHKVYACEVTHQGLSSPVTKSFNRGEC
heavy: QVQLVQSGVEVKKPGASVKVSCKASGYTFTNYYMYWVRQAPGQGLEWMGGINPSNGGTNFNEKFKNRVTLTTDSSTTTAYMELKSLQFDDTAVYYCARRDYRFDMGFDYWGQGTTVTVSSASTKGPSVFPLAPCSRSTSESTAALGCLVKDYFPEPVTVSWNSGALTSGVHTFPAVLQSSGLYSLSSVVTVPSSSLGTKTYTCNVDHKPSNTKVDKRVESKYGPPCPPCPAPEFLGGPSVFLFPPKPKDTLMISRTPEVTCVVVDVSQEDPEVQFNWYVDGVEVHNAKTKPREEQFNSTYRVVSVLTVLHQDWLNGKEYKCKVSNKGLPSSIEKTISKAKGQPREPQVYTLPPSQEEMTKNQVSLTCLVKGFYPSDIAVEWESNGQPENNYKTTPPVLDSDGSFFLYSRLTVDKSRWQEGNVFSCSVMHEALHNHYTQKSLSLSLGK
notes: Ab32VL-(G4S)3-ab32VH-(G4S)3-PemVL-κ with PemVH-hIgG4
Regarding B7, the results for the EC50 in assay [3] and in assay [6] were 56 pM and 620 pM, respectively. Further, the results for the “Multiple of EC50 variation” value in assay [4] and in assay [5] were 0.79 ratio and 0.81 ratio, respectively.

B8: bispecific antibody LB246 (bispecific antibody, human IgG4 S228P, kappa)
light: DIQMTQSPSSLSASVGDRVTITCHASQGISSNIGWLQQKPGKAFKGLIYQGSNLEDGVPSRFSGSGSGADYTLTISSLQPEDFATYYCVQFAQFPPTFGQGTKLEIKGGGGSGGGGSGGGGSEVQLVESGGGLVKPGGSLRLSCAASGFTFSDYYMAWVRQAPGKGLEWVANINYDGSNTYYLDSLKSRFTISRDNAKNSLYLQMNSLRAEDTAVYYCARGLYYYGGNYFAYWGQGTLVTVSSGGGGSGGGGSGGGGSEIVLTQSPATLSLSPGERATLSCRASKGVSTSGYSYLHWYQQKPGQAPRLLIYLASYLESGVPARFSGSGSGTDFTLTISSLEPEDFAVYYCQHSRDLPLTFGGGTKVEIKRTVAAPSVFIFPPSDEQLKSGTASVVCLLNNFYPREAKVQWKVDNALQSGNSQESVTEQDSKDSTYSLSSTLTLSKADYEKHKVYACEVTHQGLSSPVTKSFNRGECGGGGSGGGGSGGGGSEVQLVESGGGLVKPGGSLRLSCAASGFTFSDYYMAWVRQAPGKGLEWVANINYDGSNTYYLDSLKSRFTISRDNAKNSLYLQMNSLRAEDTAVYYCARGLYYYGGNYFAYWGQGTLVTVSSGGGGSGGGGSGGGGSDIQMTQSPSSLSASVGDRVTITCHASQGISSNIGWLQQKPGKAFKGLIYQGSNLEDGVPSRFSGSGSGADYTLTISSLQPEDFATYYCVQFAQFPPTFGQGTKLEIK
heavy: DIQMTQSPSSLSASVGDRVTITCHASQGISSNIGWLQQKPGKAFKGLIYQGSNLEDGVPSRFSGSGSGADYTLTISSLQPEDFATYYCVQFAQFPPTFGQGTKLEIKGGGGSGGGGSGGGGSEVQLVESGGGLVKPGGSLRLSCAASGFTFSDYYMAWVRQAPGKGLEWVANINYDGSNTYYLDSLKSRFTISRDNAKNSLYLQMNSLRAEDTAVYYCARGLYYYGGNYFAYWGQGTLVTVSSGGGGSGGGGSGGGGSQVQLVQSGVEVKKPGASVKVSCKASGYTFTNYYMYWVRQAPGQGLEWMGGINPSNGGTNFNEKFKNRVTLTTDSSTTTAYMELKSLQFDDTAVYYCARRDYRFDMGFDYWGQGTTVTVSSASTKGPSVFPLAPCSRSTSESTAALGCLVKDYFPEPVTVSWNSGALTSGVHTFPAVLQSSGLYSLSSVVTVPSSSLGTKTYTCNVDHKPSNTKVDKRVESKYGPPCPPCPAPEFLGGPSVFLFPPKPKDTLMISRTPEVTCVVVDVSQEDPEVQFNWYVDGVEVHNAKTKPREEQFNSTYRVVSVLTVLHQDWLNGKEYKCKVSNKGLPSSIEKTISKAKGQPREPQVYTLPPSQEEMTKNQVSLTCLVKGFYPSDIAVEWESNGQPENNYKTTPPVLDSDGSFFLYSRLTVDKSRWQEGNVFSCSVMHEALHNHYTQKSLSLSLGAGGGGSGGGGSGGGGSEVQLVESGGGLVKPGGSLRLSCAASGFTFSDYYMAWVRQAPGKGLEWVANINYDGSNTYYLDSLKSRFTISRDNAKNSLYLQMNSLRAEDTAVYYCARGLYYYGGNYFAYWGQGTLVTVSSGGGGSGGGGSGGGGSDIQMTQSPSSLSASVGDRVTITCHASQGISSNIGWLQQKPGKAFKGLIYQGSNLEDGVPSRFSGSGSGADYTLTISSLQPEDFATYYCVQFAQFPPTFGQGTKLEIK
As for B8, the EC50 is 5510 pM in assay [3] and 2050 pM in assay [6]. In addition, the “Multiple of EC50 variation” value is 12.9 ratio in assay [4] and 21 ratio in assay [5].
